The text below walks through data of paper PMC6888645 (2019).

The labels stand for the following.
B1: TD-N-CAP2, human CAP2 helical folded domain with the coiled coil (a.a. 1-29) replaced by the trimerization domain 2L6HC3_6 (other)
chain: GTKYKIKETLKRLEDSLRELRRILEELKEMLERLEKNPDKDVIVEVLKVIVKAIEASVENQRISAENQKALAESDGNCGEVNGVIAGVAPSVEAFDKLMDSMVAEFLKNSRILAGDVETHAEMVHSAFQAQRAFLLMASQYQQPHENDVAALLKPISEKIQEIQTFRERNRGSNMFNHLSAVSESIPALGWIAVSPKPGPYVKEMNDAATFYTNRVLKDYKHSDLRHVDWVKSYLNIWSELQAYIKEHHTTGLTWSKTGPVASTVS
B2: DD-N-CAP2, human CAP2 helical folded domain with the coiled coil (a.a. 1-29) replaced by the dimerization domain 2L4HC2_23 (other)
chain: GTRTEIIRELERSLREQEELAKRLKELLRELERLQREGSSDEDVRELLREIKELVEEIEKLAREQKYLVEELKRQDGNCGEVNGVIAGVAPSVEAFDKLMDSMVAEFLKNSRILAGDVETHAEMVHSAFQAQRAFLLMASQYQQPHENDVAALLKPISEKIQEIQTFRERNRGSNMFNHLSAVSESIPALGWIAVSPKPGPYVKEMNDAATFYTNRVLKDYKHSDLRHVDWVKSYLNIWSELQAYIKEHHTTGLTWSKTGPVASTVS
B3: ΔCC-N-CAP2, helical folded domain of human CAP2 with the coiled coil deleted (a.a. 30-220) (domain or fragment)
chain: GNCGEVNGVIAGVAPSVEAFDKLMDSMVAEFLKNSRILAGDVETHAEMVHSAFQAQRAFLLMASQYQQPHENDVAALLKPISEKIQEIQTFRERNRGSNMFNHLSAVSESIPALGWIAVSPKPGPYVKEMNDAATFYTNRVLKDYKHSDLRHVDWVKSYLNIWSELQAYIKEHHTTGLTWSKTGPVASTVS
B4: N-CAP1, N-terminal fragment of human cyclase-associated protein 1 (original coiled coil and helical folded domain) (domain or fragment)
chain: MADMQNLVERLERAVGRLEAVSHTSDMHRGYADSPSKAGAAPYVQAFDSLLAGPVAEYLKISKEIGGDVQKHAEMVHTGLKLERALLVTASQCQQPAENKLSDLLAPISEQIKEVITFREKNRGSKLFNHLSAVSESIQALGWVAMAPKPGPYVKEMNDAAMFYTNRVLKEYKDVDKKHVDWVKAYLSIWTELQAYIKEFHTTGLAWSKTGPVAKELSGL
B5: DD-N-CAP1, human CAP1 helical folded domain with the coiled coil (a.a. 1-29) replaced by the dimerization domain 2L4HC2_23 (other)
chain: GTRTEIIRELERSLREQEELAKRLKELLRELERLQREGSSDEDVRELLREIKELVEEIEKLAREQKYLVEELKRQDGYADSPSKAGAAPYVQAFDSLLAGPVAEYLKISKEIGGDVQKHAEMVHTGLKLERALLVTASQCQQPAENKLSDLLAPISEQIKEVITFREKNRGSKLFNHLSAVSESIQALGWVAMAPKPGPYVKEMNDAAMFYTNRVLKEYKDVDKKHVDWVKAYLSIWTELQAYIKEFHTTGLAWSKTGPVAKELSGL
B6: ΔCC-N-CAP1, helical folded domain of human CAP1 with the coiled coil (a.a. 1-29) deleted (domain or fragment)
chain: GYADSPSKAGAAPYVQAFDSLLAGPVAEYLKISKEIGGDVQKHAEMVHTGLKLERALLVTASQCQQPAENKLSDLLAPISEQIKEVITFREKNRGSKLFNHLSAVSESIQALGWVAMAPKPGPYVKEMNDAAMFYTNRVLKEYKDVDKKHVDWVKAYLSIWTELQAYIKEFHTTGLAWSKTGPVAKELSGL
B7: TD-N-CAP1, human CAP1 helical folded domain with the coiled coil (a.a. 1-29) replaced by the trimerization domain 2L6HC3_6 (other)
chain: GTKYKIKETLKRLEDSLRELRRILEELKEMLERLEKNPDKDVIVEVLKVIVKAIEASVENQRISAENQKALAESDGYADSPSKAGAAPYVQAFDSLLAGPVAEYLKISKEIGGDVQKHAEMVHTGLKLERALLVTASQCQQPAENKLSDLLAPISEQIKEVITFREKNRGSKLFNHLSAVSESIQALGWVAMAPKPGPYVKEMNDAAMFYTNRVLKEYKDVDKKHVDWVKAYLSIWTELQAYIKEFHTTGLAWSKTGPVAKELSGL

One experiment has as its target T1, F-actin (skeletal muscle actin, polymerised) ( (rabbit or chicken skeletal …, UniProt P68135 1-377)).
Consider B1, for which the dissociation constant Kd was 0.68 µM.

On to B2, for which the affinity, expressed as Kd, was 7.11 µM.

B3 yielded a Kd of 21.9 µM.

For a further experiment, the target named is T1, F-actin (skeletal muscle actin, …). This is another data set of the same source.
Consider B4, for which the affinity, expressed as Kd, was 0.91 µM. This counts as sub-micromolar.

The molecule B5 had a Kd of 3.42 µM.

In turn, B6 registered a dissociation constant Kd of 5.69 µM.

The molecule B7 yielded a dissociation constant Kd of 2.97 µM.

As usually defined, the Kd is the free concentration of one partner at which half of the binding sites on the other are occupied at equilibrium, for simple one-to-one binding. Low values mean higher affinity, high ones lower affinity.
